In assay [1] the target is homocysteinylated fibronectin (human (endogenous in primary human dermal fibroblasts)) (UniProt P02751). As to the kind of experiment: ELISA. For orientation: An ELISA detects its analyte on a solid surface through an enzyme-linked reagent.
The target in assay [2] is homocysteinylated FN40K fragment (human) (UniProt P02751). Nature of the assay: ELISA.
Chain of homocysteinylated FN40K fragment (human) (P02751 32-2477): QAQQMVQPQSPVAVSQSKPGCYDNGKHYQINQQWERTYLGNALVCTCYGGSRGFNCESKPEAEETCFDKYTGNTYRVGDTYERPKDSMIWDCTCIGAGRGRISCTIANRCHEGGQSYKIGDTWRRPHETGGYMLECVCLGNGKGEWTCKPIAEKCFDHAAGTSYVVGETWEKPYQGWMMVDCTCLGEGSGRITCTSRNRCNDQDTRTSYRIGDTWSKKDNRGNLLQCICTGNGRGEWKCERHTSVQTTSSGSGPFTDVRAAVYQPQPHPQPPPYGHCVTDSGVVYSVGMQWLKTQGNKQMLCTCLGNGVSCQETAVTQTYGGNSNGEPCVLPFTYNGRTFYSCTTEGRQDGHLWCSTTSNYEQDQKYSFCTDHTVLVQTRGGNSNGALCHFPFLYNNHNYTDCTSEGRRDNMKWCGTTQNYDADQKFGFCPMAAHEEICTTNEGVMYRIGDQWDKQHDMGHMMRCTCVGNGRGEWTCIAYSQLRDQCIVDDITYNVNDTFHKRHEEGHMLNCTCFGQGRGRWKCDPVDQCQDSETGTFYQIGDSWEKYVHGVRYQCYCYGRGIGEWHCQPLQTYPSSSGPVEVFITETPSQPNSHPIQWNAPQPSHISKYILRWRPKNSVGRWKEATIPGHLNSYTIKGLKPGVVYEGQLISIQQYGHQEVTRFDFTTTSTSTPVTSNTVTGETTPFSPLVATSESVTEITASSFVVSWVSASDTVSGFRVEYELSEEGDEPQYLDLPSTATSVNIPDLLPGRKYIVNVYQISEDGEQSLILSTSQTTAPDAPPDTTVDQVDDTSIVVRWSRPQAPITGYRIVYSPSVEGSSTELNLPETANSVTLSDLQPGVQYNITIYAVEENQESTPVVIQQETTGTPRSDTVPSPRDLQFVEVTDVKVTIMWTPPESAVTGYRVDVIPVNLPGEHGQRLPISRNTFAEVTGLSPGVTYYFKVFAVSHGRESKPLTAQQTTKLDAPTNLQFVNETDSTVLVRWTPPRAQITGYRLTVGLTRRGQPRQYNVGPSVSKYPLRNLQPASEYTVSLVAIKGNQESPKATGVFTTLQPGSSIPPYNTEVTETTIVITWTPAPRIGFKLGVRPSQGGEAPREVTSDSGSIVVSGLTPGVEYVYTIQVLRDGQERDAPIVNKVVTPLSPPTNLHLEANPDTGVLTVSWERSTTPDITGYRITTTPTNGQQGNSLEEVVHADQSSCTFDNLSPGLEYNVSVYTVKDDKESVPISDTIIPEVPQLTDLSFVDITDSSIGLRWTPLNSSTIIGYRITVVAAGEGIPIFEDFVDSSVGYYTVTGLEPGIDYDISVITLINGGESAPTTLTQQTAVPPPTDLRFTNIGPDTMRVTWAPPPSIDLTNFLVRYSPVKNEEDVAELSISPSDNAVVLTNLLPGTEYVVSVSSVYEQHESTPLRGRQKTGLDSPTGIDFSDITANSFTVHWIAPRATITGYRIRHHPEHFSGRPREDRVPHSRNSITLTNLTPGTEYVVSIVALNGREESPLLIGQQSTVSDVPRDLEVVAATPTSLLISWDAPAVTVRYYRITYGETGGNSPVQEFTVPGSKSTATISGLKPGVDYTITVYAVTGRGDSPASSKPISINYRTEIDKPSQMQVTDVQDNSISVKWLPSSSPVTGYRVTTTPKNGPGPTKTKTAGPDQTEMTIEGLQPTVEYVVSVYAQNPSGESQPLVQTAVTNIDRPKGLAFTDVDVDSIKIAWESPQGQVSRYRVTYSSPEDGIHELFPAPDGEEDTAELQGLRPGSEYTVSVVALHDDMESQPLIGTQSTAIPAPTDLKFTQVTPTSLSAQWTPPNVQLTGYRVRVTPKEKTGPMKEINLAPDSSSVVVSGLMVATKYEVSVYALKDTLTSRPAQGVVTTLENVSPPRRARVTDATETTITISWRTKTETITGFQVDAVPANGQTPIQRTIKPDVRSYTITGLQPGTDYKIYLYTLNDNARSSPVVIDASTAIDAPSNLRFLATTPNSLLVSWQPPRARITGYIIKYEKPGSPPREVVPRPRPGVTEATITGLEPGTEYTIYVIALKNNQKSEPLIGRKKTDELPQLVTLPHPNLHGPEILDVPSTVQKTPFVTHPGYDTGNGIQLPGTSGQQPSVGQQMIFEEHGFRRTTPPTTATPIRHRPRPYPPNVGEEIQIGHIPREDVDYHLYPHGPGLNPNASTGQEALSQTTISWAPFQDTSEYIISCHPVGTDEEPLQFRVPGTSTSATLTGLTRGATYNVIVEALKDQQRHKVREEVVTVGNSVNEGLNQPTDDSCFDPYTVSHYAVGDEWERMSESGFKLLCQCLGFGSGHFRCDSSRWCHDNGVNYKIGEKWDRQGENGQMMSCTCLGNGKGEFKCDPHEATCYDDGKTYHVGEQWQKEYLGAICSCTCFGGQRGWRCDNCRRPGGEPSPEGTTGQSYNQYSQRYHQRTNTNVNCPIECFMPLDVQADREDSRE

Chain of homocysteinylated fibronectin (human (endogenous in primary human dermal fibroblasts)) (P02751 32-2477): as above

Take “recombinant C-terminal half of fibrillin-1 (rFBN1-C) (from UniProt P35555 45-2731) (domain or fragment)”: the relative reduction in binding against the non-modified control is 65% in assay [1] and 34.1% in assay [2].

(Values after PMC3112360.)
